{"source": "paper PMC5376962", "target": "Burkholderia pseudomallei N-type ATPase c-subunit (atpE), assembled into the c17 rotor ring, expressed alone in E. coli (Burkholderia pseudomallei)", "test": "cryo-EM structure", "data": [{"substance": "Burkholderia pseudomallei N-type ATPase c-subunit (atpE), assembled into the c17 rotor ring, expressed alone in E. coli (natural protein)", "values": [{"measurement": "stoichiometry N", "result": 17}]}]}
